The source of these data is US20250059271A1 (BARRELMAN BIOSCIENCES, published 2025).

T1: dProgastrin-SUMO protein (dog, UniProt P01353 22-104)
T1 construct: Unknown whether the listing entry 103 holds the tag; also called dProg-Sumo protein; dog progastrin His-SUMO protein; not shown: N-terminal His-SUMO tag
T1 sequence: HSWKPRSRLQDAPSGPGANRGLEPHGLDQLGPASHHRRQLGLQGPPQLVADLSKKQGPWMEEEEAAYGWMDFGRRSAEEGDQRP

B1: dProg-2-D6 mAb (antibody, V domains shown)
VH: QSVKESEGGLFKPTEPLTLTCTVSGFSLSSDNMGWVRQTPGKQLEWIGWIGSSGSAYYARWAKSRSTITRNTNENTVTLKMTSLTAADTATYFCARSGWGSFDIWGPGTLVTVSS
VL: AQVLTQTPSPVSAAVGSTVTISCQSSQSVYSNNRLAWFQQKPGQPPKLLIYLASTLASGVPSRFKGSGSGTQFTLTISEVQCDDAATYYCQGYYSGYIFGFGGGTEVVVKG
notes: Recombinant rabbit monoclonal antibody; also called D6 mAb (C terminus); dprogastrin-2_D6
B2: dProg-2-A3 mAb (antibody, V domains shown)
VH: QSVEESRGGLFKPTEPLTLTCTASGFTISSYHMGWVRQTPGKQLEWIGWIGSSGATYYASWATSRSTITRNTNDNTVTLKMTSLTAADTATYFCARSGWGSFDIWGPGALVTVSS
VL: B1 VL with S9A, P10S, S17G, S22N, S31N, N33D, S78G, G92S, S95N
notes: Recombinant rabbit monoclonal antibody; same entries as dProg-2-F4; Biotinylated when used for detection; also called dprogastrin-2_A3 mAb
B3: dProg-2-F4 mAb (antibody, V domains shown)
VH: B2 VH
VL: B1 VL with S9A, P10S, S17G, S22N, S31N, N33D, S78G, G92S, S95N
notes: Recombinant rabbit monoclonal antibody; same entries as dProg-2-A3; also called dprogastrin-2_F4

Where a chain is given by its changes, count along the chain named.

The test concerns the target T1, dProgastrin-SUMO protein. Nature of the test: ELISA; supernatant 1:2000 on 2 ug/ml dProgastrin-Sumo. Here is the method: Deep well ELISA reading of 46 different monoclonal antibodies against 2 μg/ml dProgastrin-Sumo protein antigen versus 2 μg/ml anti rabbit antibodies. Supernatants containing the antibodies were diluted at 1:2000. […] Monoclonal antibodies with strong specificities against the dProgastrin C terminus at low concentrations include the D6 mAb, A3 mAb, and F4 mAb, among others.
Background: ELISA stands for enzyme-linked immunosorbent assay.
Turning to B1, the OD came to 2.02 OD.
For B2, the OD was found to be 2.19 OD.
To B3 belongs 1.99 OD.
